Laboratory results from the supplement of paper PMC12042874.
± gives the uncertainty stated by the source.

Test: amyloid nucleation score (Sup35N fusion, yeast selection) (log enrichment); library NNK1; higher = more nucleation; inactive = no reads after selection
How it was run: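 Growth for 7 days at 30°C on medium lacking adenine and uracil followed a 24-hour induction with 100 μM copper sulfate of psi-negative yeast expressing peptides of 20 random codons fused to Sup35N. Input and output plasmid inserts were sequenced with Illumina, and sequences with under 100 input reads were excluded. Nucleation score is the DiMSum log enrichment of output over input reads, centred on the mode score of non-aggregating sequences.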

Substance	amyloid nucleation score
IVGMASRCRGFR	1.11 ± 0.71
IVLDT	0.227 ± 0.29
IVLRDFHGLSWAWSLIVHVK	0.039 ± 0.88
IVPAEAVLRRLQRFLRWLVV	-0.245 ± 1.1
IVVFQ	-0.887 ± 1.8
IVWESLFNKFAITVGMLGFM	1.63 ± 0.43
IWCVFIQWLCSRRVERQSCR	4.31 ± 0.11
IWDASKVGSYAELHTLM	0.744 ± 0.33
IWGDKIHGFHGVIMMQSGMV	-0.762 ± 0.71
IWKKLITNWMAYLTLNNFAL	inactive
IWLDCIGRYSGVYRHVINDV	-0.863 ± 0.37
IWQFDWPHRGIEMRVRRDMT	0.135 ± 0.69
IYCGNSEF	-0.048 ± 0.79
IYFFIPFSPVGDTDRSFWGY	-0.059 ± 0.98
IYFGFCRD	2.02 ± 0.089
IYFVIDCN	0.835 ± 0.56
IYGIMLG	inactive
IYIIPFDRNLYPISIHVLVR	inactive
IYLCLATYFLYPRLVWTSTL	0.521 ± 0.72
IYLKWHFADY	0.529 ± 0.45
IYLMIGHWESNNKLNICVLP	3.7 ± 0.11
IYMCIGWQ	7.268 ± 0.044

Substance	amyloid nucleation score
IYMMECEVL	-0.157 ± 0.42
IYMYIVNRRVTGSFRF	-0.136 ± 0.23
IYRLTCETEVRCGTFNDIVD	0.105 ± 0.21
IYTVVRAVCMGPGSGWLFRK	-1.05 ± 1.2
IYVRGRMRVMGARH	-1.26 ± 1.5
IYWRILEL	-0.034 ± 0.85
IYYMYYLYHYWMILRENDFM	0.151 ± 0.21
KAFLTRRFLNLYVRIKPYMV	-0.503 ± 0.3
KAGRGICESYRSFHPRPVFA	0.034 ± 0.4
KCGIVVNVQHRKPRGRIPAQ	-1.02 ± 0.67
KDICY	0.864 ± 0.51
KDQTTYMDCFV	0.101 ± 0.49
KELCCRASSDLMLRWQVKVF	0.027 ± 1.4
KELKYCVFALVVAD	0.012 ± 0.63
KFDPVKQYLCMYFFTYQIES	2.06 ± 0.15
KFFLRNGVAGTTVLLVQGLQ	inactive
KFIEMRRNKSPKHLPAWASD	0.911 ± 0.54
KFMLWPNIWMN	0.916 ± 0.54
KFYSMKTSNFWCI	2.04 ± 0.18
KGHRCNIVTTNTAPRFPW	-0.482 ± 0.91
KGKECKRFLVNTKIGSNRT	inactive
KGRVKGSVASSLS	-0.309 ± 0.57

Substance	amyloid nucleation score
KGTCCPPLPVILDIMEDSSR	-0.227 ± 0.38
KGVHGYCRRIM	inactive
KHCRVSPNVSECAFKGAMCL	1.17 ± 0.63
KHICTAFRSVEFAEGIR	0.658 ± 0.46
KHLYVR	-0.752 ± 0.56
KIDGRPVHIPRFRYDNDNKV	-0.359 ± 0.47
KIKVPRIVLVCKCILFNNLW	1.51 ± 0.34
KILCMSCFTNSYHARWTFIL	5.694 ± 0.051
KIMCELCNSVRNALWRTLRG	-0.01 ± 0.71
KIMLSRMYNQYMGCQVKFW	-0.409 ± 0.51
KITHLFFKSSYVIVKLLYVI	0.082 ± 0.51
KKGLSKMVKPVYSCLN	-1 ± 1.6
KKMIFTVVVECSKLWPLRVV	0.399 ± 0.69
KKYVRGWGAFLAMQHGGMM	-0.604 ± 0.6
KLALRKGSRDVH	0.661 ± 0.97
KLARTMGYTGTSMVACFCVV	inactive
KLFDYAVYLC	0.936 ± 0.5
KLFESYVLSRGMVPETVKAV	0.226 ± 0.78
KLFLLGAINGQFI	4.87 ± 0.066
KLLSGGVNTWRPTGTSRLEI	-0.053 ± 0.46
KLPRTCAPLYHMLTHGVGHR	-0.075 ± 0.72
KLQVGSPN	-0.053 ± 1.4

Substance	amyloid nucleation score
KLSGMIAEMRAGPCTYRILY	-0.511 ± 0.45
KLSNEYW	-0.485 ± 0.36
KLTQKCHKCLH	0.107 ± 0.68
KLVLRGVFIIDFWSNARRAS	0 ± 0.29
KLYGLVFFLVYGNDGSKRDL	0.779 ± 0.36
KMAYRVVNNLGCSIMCNICT	7.616 ± 0.046
KMIPMTYASKVLKCRLFEVK	1.14 ± 0.76
KMLVGHS	0.087 ± 0.83
KMMPWVLLGRKLRLWRLCTK	-0.463 ± 0.56
KMRKIDAR	2.63 ± 0.11
KMSGTLQ	-0.115 ± 1.4
KMYLLRIQ	0.661 ± 0.82
KNFAVRWNPVTSDWFVTLSV	-0.429 ± 0.4
KNFWKGVLYSIRCHNQWNVG	5.41 ± 0.092
KNHYYFA	-0.203 ± 0.38
KNRRSCIMNIGRYWRVQMVI	-0.846 ± 0.68
KNVARVHMQCLPAYVLGRNH	0.018 ± 0.66
KPMFSLGSNYKMCIYHGCFM	8.183 ± 0.061
KQFDTSGLNVRRSCNRSRHM	0.301 ± 0.56
KQRIFEMLPWGPRPLYPVWG	0.405 ± 0.43
KRERGKISIEEAMRQAGQRS	0.578 ± 0.7
KRNLRVHSTGIFRYRIWKA	-0.047 ± 0.48
